# In article PMC5980995, “An allostatic mechanism for M2 pyruvate kinase as an amino-acid sensor” (Biochemical Journal, 2018):
# B1: M2 isoenzyme of pyruvate kinase (M2PYK), human, N-terminal His6 tag (enzyme)
# chain: not shown
# Biological target: the molecule itself
# Experiment: cell-based or functional assay
protein,measurement,value
B1,"half-life of the loss of enzyme activity (LDH-coupled assay) after dilution from 20 mg/ml to 0.002 mg/ml in PBS-CM pH 7.4, taken as dissociation of the tetramer",~15 min
